Assay results taken from PMC12285722, “M6A-dependent RNA condensation underlies FUS autoregulation and can be harnessed for ALS therapy development”.

Target: FUS (recombinant, His-tagged) (human, UniProt P35637 1-526)
Assay: EMSA; 250 nM RNA, 0-7.5 uM FUS (Methods: 7.0); EMSA: 50 mM Tris-HCl pH 7.5, 100 mM KCl, 2 mM MgCl2, 100 mM beta-mercaptoethanol, 0.1 mg/ml BSA, 30 min RT, 6% native gel in TBE; CONA: lysate in 1% Triton X-100/PBS, beads washed in 20 mM Hepes pH 7.5, 0.3 M NaCl, 0.01% Triton X-100, 5 mM MgCl2, 2 h RT
Details: protein: recombinant; tags: His; label: 5' Cy5; 3' biotin-TEG

Chain of FUS (recombinant, His-tagged) (P35637 whole entry): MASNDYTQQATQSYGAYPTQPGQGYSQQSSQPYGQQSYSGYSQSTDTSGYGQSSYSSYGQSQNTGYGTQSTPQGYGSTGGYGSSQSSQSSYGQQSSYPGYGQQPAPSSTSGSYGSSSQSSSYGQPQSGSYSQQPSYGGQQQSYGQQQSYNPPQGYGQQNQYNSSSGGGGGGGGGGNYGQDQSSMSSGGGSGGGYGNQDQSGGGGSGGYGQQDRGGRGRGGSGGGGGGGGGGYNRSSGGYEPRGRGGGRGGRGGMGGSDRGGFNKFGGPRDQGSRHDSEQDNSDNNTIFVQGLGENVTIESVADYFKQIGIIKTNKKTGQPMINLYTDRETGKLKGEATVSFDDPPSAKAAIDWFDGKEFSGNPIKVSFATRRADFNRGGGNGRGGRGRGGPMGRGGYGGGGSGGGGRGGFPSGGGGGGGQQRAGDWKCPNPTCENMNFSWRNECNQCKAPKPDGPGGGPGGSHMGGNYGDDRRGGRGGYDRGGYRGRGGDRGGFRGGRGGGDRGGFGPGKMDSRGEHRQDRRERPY

GGACUCGGACUUGGACUCUGGACUUUG (ssRNA) [4xDRACH]: binds.
